Earlier results in patent publication US11866502B2, “Anti-FGFR2 antibodies and methods of use thereof” (Regeneron Pharmaceuticals, Inc., priority 2020, dated 2024).

Test system: xenograft models
Settings: several xenograft models; cited from earlier work

B1: Aprutumab-TTC: anti-FGFR2 antibody, a chelator moiety covalently conjugated to the antibody, and the alpha particle-emitting radionuclide thorium-227 (conjugate, chains of the INN, looked up)
VH: EVQLLESGGGLVQPGGSLRLSCAASGFTFSSYAMSWVRQAPGKGLEWVSAISGSGTSTYYADSVKGRFTISRDNSKNTLYLQMNSLRAEDTAVYYCARVRYNWNHGDWFDPWGQGTLVTVSS
VL: QSVLTQPPSASGTPGQRVTISCSGSSSNIGNNYVSWYQQLPGTAPKLLIYENYNRPAGVPDRFSGSKSGTSASLAISGLRSEDEADYYCSSWDDSLNYWVFGGGTKLTVL
modifications: chelator conjugate with thorium-227
tumor growth in xenograft models: inhibited tumor growth
